The results in this text go back to publication PMC3865722 (2014).

What all share (experiment): competitive inhibition of Tra2β
One assay deals with T1, Tra2β(ΔN) 114-288 (Homo sapiens, UniProt P62995).
T1 chain: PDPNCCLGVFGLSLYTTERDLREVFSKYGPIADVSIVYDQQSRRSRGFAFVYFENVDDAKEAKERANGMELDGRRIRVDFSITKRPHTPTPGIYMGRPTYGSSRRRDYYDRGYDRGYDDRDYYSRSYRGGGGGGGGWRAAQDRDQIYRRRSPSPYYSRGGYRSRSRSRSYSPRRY

Assay [1] concerns the target T2, Tra2β(ΔN/RS2) RRM and N-terminal half of C-terminal RS domain (Homo sapiens, UniProt P62995).
T2 chain: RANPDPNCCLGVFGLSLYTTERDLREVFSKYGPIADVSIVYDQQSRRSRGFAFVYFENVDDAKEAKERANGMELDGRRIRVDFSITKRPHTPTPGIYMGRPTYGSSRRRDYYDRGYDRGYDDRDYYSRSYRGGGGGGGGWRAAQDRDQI

The target of assay [2] is T3, Tra2β(ΔN/RRM) C-terminal RS domain (Homo sapiens, UniProt P62995).
T3 chain: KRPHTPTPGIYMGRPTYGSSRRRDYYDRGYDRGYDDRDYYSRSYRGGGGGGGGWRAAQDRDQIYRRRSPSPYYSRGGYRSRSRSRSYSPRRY

B1: SRPK1 (protein)
chain: MERKVLALQARKKRTKAKKDKAQRKSETQHRGSAPHSESDLPEQEEEILGSDDDEQEDPNDYCKGGYHLVKIGDLFNGRYHVIRKLGWGHFSTVWLSWDIQGKKFVAMKVVKSAEHYTETALDEIRLLKSVRNSDPNDPNREMVVQLLDDFKISGVNGTHICMVFEVLGHHLLKWIIKSNYQGLPLPCVKKIIQQVLQGLDYLHTKCRIIHTDIKPENILLSVNEQYIRRLAAEATEWQRSGAPPPSGSAVSTAPQPKPADKMSKNKKKKLKKKQKRQAELLEKRMQEIEEMEKESGPGQKRPNKQEESESPVERPLKENPPNKMTQEKLEESSTIGQDQTLMERDTEGGAAEINCNGVIEVINYTQNSNNETLRHKEDLHNANDCDVQNLNQESSFLSSQNGDSSTSQETDSCTPITSEVSDTMVCQSSSTVGQSFSEQHISQLQESIRAEIPCEDEQEQEHNGPLDNKGKSTAGNFLVNPLEPKNAEKLKVKIADLGNACWVHKHFTEDIQTRQYRSLEVLIGSGYNTPADIWSTACMAFELATGDYLFEPHSGEEYTRDEDHIALIIELLGKVPRKLIVAGKYSKEFFTKKGDLKHITKLKPWGLFEVLVEKYEWSQEEAAGFTDFLLPMLELIPEKRATAAECLRHPWLNS
By Ki is commonly meant the dissociation constant of the complex between target and ligand, obtained from inhibition or displacement. As for B1, the values for the Ki (in the assay with Tra2β(ΔN) 114-288; in assay [1]; in assay [2]) were 11 nM, 180 nM and 45 nM, respectively.
